Laboratory results published in publication PMC5372792.

Legend:
[1] = target: HLA-C01:02 (C1) on 721.221 cells (human | human (endogenous in 721.221))
[2] = target: HLA-C07:01 (C1) on 721.221 cells (human | human (endogenous in 721.221))

“KIR2DL2 reporter (2DL2–2DS1TM chimeric molecule, KIR2DL2*001) (receptor)” was tested, and the GFP-positive NFAT-GFP reporter cells after overnight coculture with 721.221 transfectants (E:T 1:3) (% GFP-positive cells) [1] was < 5 and the GFP-positive NFAT-GFP reporter cells after overnight coculture with 721.221 transfectants (E:T 1:3) [2] was > 20 % GFP cells.
